Data on 3 molecules can be found in patent US6015555, “Transferrin receptor specific antibody-neuropharmaceutical or diagnostic agent conjugates” (Alkermes, Inc., dated 2000).

The target of experiment [1] is T1, rat transferrin receptor (rat, UniProt Q99376).
The target in experiment [2] is T1, rat transferrin receptor. The source holds these as a separate data set.
Experiment [3] deals with T1, rat transferrin receptor. This is another data set of the same source.
For experiment [4], the target named is transferrin receptor on monkey (cynomolgous) brain capillaries (monkey (cynomolgous)).
Experiment [5] deals with T1, rat transferrin receptor. The experiment can be described thus: immunohistochemistry on rat brain sections (brain capillary endothelial cells). The text has this:
Biodistribution and Brain Uptake of Anti-Human Transferrin Receptor Antibodies in Cynomolgous Monkeys A collection of 32 murine monoclonal antibodies which recognize various epitopes on the human transferrin receptor were examined for reactivity with brain capillary endothelial cells in sections from human, monkey (cynomolgous), rat and rabbit brain samples by the immunohistochemical methods described in Example 1. These antibodies were obtained from Dr. Ian Trowbridge of the Salk Institute, LaJolla, Calif. […] Two antibodies reacted very weakly with rabbit brain capillaries and none reacted with rat. […] These 2 antibodies are herewithin referred to as 128.1 and Z35.2.

For OX-26 murine monoclonal antibody, in the experiment with rat transferrin receptor [1], the distribution of radiolabelled antibody between brain capillary fraction and parenchyma fraction (capillary depletion) is 0.36 % ID. The percent of the injected dose of 14C-labelled antibody in the brain (% of the injected dose) with rat transferrin receptor [2] turned out to be 0.9.

In the case of “OX-26-methotrexate (MTX) conjugate linked via a gamma-hydrazid (antibody)”, the distribution of 3H-MTX label between brain capillary fraction and parenchyma fraction (capillary depletion) in the experiment with rat transferrin receptor [3] is 4.5 fold.

B1: murine monoclonal antibody 128.1 (antibody, V domains shown)
VH: EVQLQQSGPELVKPGASMKISCKASGYSFTGYTMNWVKQSHGENLEWIGRINPHNGGTDYNQKFKDKAPLTVDKSSNTAYMELLSLTSGDSAVYYCARGYYYYSLDYWGQGTSVTVSS
VL: QIVLTQSPAIMSVSPGEKVTMTCSASSSIRYIHWYQQRPGTSPKRWIYDTSNLASGVPARFSGSGSGTSYSLTISSMEAEDAATYYCHQRNSYPWTFGGGTRLEIR
As for B1, the share of 14C-labelled antibody in the brain parenchyma (capillary depletion) 24 hours after injection into a cynomolgous monkey in experiment [4] stood at 90%. For the same molecule, the binding result in the experiment with rat transferrin receptor [5] was “no binding”.
